Experimental findings from patent US20200010570A1 (SICHUAN KELUN BIOTECH BIOPHARMACEUTICAL, published 2020) are described below.

The target of assay [1] is T1, PDL-1 on the cell surface (293T cells expressing PDL-1) (human, UniProt Q9NZQ7 19-290). Put plainly: FACS, cells expressing PDL-1, method of Example 8.
In assay [2] the target is T2, recombinant protein PDL-1ECD-mFc (human, UniProt Q9NZQ7 19-238).
T2 construct: also called PDL-1-mFc; human PDL-1 (coated antigen); not shown: a TEV site before it is implied by the TEV digestion of
Put plainly: indirect ELISA, method of Example 9; column 'Affinity by ELISA (nM)'.

Assay [3] deals with T1, PDL-1 on the cell surface (293T cells …). In words: FACS, cells expressing PDL-1, method of Example 8; column 'Cell affinity by FACS'.
Assay [4] deals with T2, recombinant protein PDL-1ECD-mFc. In words: competitive ELISA, method 'described in Example 13'; column 'Affinity by competitive ELISA (nM)'; competitor not given.
In assay [5] the target is T3, PDL-1 antigen (PDL-1-mFc digested with TEV protease) (human, UniProt Q9NZQ7 19-238).
T3 construct: the whole entry is named
Put plainly: Fortebio, PDL-1 on sensor, antibody then PD-1 10 µg/ml; competitor PD-1.

T1 sequence (Q9NZQ7 19-290 limits assumed): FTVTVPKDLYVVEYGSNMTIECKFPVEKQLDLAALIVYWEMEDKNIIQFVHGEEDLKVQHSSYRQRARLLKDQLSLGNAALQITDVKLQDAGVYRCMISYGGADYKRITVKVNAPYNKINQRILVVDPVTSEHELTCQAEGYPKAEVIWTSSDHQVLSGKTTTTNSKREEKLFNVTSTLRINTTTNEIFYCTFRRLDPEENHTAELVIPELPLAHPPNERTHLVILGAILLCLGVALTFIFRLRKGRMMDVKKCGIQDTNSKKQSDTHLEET
T2 sequence (Q9NZQ7 19-238): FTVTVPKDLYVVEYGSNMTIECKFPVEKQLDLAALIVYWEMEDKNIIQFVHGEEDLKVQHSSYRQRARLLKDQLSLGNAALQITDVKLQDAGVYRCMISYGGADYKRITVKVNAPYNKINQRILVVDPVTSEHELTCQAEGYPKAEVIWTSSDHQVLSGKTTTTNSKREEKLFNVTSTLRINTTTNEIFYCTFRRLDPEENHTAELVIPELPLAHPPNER
T3 sequence (Q9NZQ7 19-238 limits assumed): as the sequence (Q9NZQ7 19-238) above

B1: monoclonal antibody 9F6 (antibody, V domains shown)
VH: EVQLQQSGAELVKPGASVKLSCTASGFNIKDTYMYWVKQRPEQGLEWIGRIDPANGNTKYDPKFQGKATITADTSANTAYLQLSSLTSEDTAVYYCSRGPPGGIGEYIYAMDYWGQGTSVTVSS
VL: QIVLTQSPAIMSASLGERVTMTCTASSSVSSSYLHWYQQKPGSSPKLWIYSTSNLASGVPARFSGSGSGTSYSLTISSMEAEDAATYYCHQYHRSPPTFGGGTKLEI
notes: Murine antibody from a hybridoma
For B1, the positive % in assay [1] stood at 80.2%. Also, the concentration giving a half-maximal response (EC50) worked out at 29 pM in assay [2], 2930 pM in assay [3] and 767 pM in assay [4].

B2: monoclonal antibody 5C10 (antibody, V domains shown)
VH: QVQLKESGPGLVAPSQNLSITCTVSGFSLSNYDISWIRQPPGKGLEWLGVIWTGGATNYNSAFMSRLSISRDNSKSQVFLKMNSLQTDDTAIYYCVRDSNYRYDEPFTYWGQGTLVTVSA
VL: DILLTQSPAILSVSPGERVSLSCRASQSIGTNIHWFQQRTNGSPRLLIKYASESISGIPSRFSGSGSGTDFTLSINSVESEDIADYYCQQSNSWPYTFGGGTKLEI
notes: Murine antibody purified from hybridoma supernatant; also called antibody of hybridoma cell strain LT005
In assay [1], B2 showed a positive % of 100%. For the same molecule, the EC50 in assay [2] stood at 31 pM; in assay [5], 817 pM; in assay [3] it was 2300 pM; in assay [4], 785 pM.

B3: monoclonal antibody 5F10 (antibody, V domains shown)
VH: EVQLQQSGAELVKPGASVKLSCTASGFDIKDTYIHWVKQRPEQGLEWIGRIDPADGNTRYDPKFQDKTTITTDTSSNTAHLQLSSLTSEDTAVYYCARGLGAWFASWGQGTLVTVSA
VL: DIQMTQTTSSLSASLGDRVTISCRASQDITNSLNWYQQKPDGTVKLLIHYTSRLHSGVPSRFSGSGSGTDYSLTISNLEQEDIATYFCQQGHTLPPTFGGGTKLEI
notes: as for B1
Take B3: the positive % in assay [1] is 60.3%. For the same molecule, the EC50 in assay [2] is 29 pM; in assay [3], 1480 pM; in assay [4], 838 pM.
